Experimental findings from the supplement of paper PMC9170038 are described below.

The subject of this data set is MS2 coat protein. The data set is described as follows: apparent KD of MS2 coat protein; designed switch direction (-1 OFF switch, 1 ON switch): -1; higher = weaker reporter binding. Summed up: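 Three titration conditions were used: no input, 200 uM small-molecule ligand, and an oligonucleotide input. In each, SNAP-549-labelled MS2 coat protein was raised from 0.7 or 1.5 nM, doubling, to 3 µM over designed RNA switches transcribed on Illumina chips by stalled E. coli RNA polymerase. Curve fits of normalised cluster fluorescence gave values whose per-design median over clusters is the apparent KD.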

The mark [1] stands for this setting: input ligand: microRNA oligo, concentration not stated.
[2] abbreviates: Eterna round: R95, input ligand: FMN 200 uM.
Setting [3] is: Eterna round: R95, input ligand: microRNA oligo, concentration not stated.
Setting [4] is: Eterna round: R95, input ligand: none.

Regarding “UACGGUCCUAACAUGAGGAUCACCCAUGUAACAAAAGAAACCUAGGAUAUCCGCGCCGGAAGGAAGGAGAAGGAGGGCGUGGCA [Ededti] (Eterna round: R96, puzzle: Exclusion NG 3)”, the “apparent KD of MS2 coat protein” value runs as follows: (input ligand: FMN 200 uM) 50.7 nM; under setting [1], 34.3 nM; (input ligand: none) 51.8 nM.

Regarding “UAGCAGAGAGGAUAUACAUUCAUCACCCGCGCAACAAGCGCACAUGAGGAUCACCCAUGUAGAAGGCUCGUGCC [EX2 C.20] (Eterna round: R97, puzzle: Exclusion 2)”, the “apparent KD of MS2 coat protein” value runs as follows: (input ligand: FMN 200 uM) 53.6 nM; (input ligand: none) 31.7 nM.

With “UAGCUUUAUGUUAGGAUAUUCGCGCAUAUACUGCCGAAGAAGGAACAUGAGGAUCACCCAUGUACACGCCUAUG [Eternabot (L1) Solution 60] (Eterna round: R97, puzzle: Brourd's mod of Exclusion 4)”, the “apparent KD of MS2 coat protein” value runs as follows: (input ligand: FMN 200 uM) 81.1 nM; (input ligand: none) 20.9 nM.

On to “UAGGAGUCAGGAUAUGCGAGAGAUUGAAGUAUGGGAAGUGAGCAGAAGGGACAUGAGGAUCACCCAUGUGAGAA [JR_Exclu4_Sub094] (puzzle: Exclusion 4)”, for which the “apparent KD of MS2 coat protein” value amounted to 52.1 nM under setting [2], 46.8 nM under setting [3] and 45 nM under setting [4].

Take “UAUAAAACAUAGGAUAUCGAAUAUAUCAUUUAACGAGAAGGAUGAACAUGAGGAUCACCCAUGUGGUAUCAUGG [Mat - Exclusion 6 - JL Mod - D8] (puzzle: Exclusion 6)”: the “apparent KD of MS2 coat protein” value turned out to be 286 nM under setting [2], 262 nM under setting [3] and 172 nM under setting [4].

Take “UAUAACAGAGGAUAUGCGAAUAAAUAAAACUUUUUUUUUUAACAUGAGGAUCACCCAUGUAGAAGGCUGAUAUU [Ex2 #22] (Eterna round: R97, puzzle: Exclusion 2)”: the “apparent KD of MS2 coat protein” value is, setting by setting: (input ligand: FMN 200 uM) 28.5 nM; (input ligand: none) 51.6 nM.

For “UAUACACAUGAGGAUCACCCAUGUGAGGAUAUGUAAAAAAAACCGACGGUUUUUUUUUACAGAAGGCACAUAUA [JR_Exclusion1_Sub026] (puzzle: Exclusion 1)”, the “apparent KD of MS2 coat protein” value under setting [3] was 52.5 nM.

Consider “UAUACUAGAUAGGAUAUACUAUAUAUAUUUUUCGUAGAAGGAUCUACAUGAGGAUCACCCAUGUUAACAGCAGU [JR_E6_Sub007] (puzzle: Exclusion 6)”, for which the “apparent KD of MS2 coat protein” value was 45 nM under setting [2], 42.9 nM under setting [3] and 41.5 nM under setting [4].

Turning to “UAUAUAUAGUAAGGAUAUGUAAUCAUUUUAUAAACAGAAGGUACUGACAUGAGGAUCACCCAUGUUUUAGUGUGGGCAUGUAGA [JMF's solution 31] (Eterna round: R96, puzzle: Exclusion NG 1)”, under setting [1], the “apparent KD of MS2 coat protein” value was determined as 64.6 nM.

As for “UAUAUAUAGUAAGGAUAUGUAUAUAUUAUAUAAACAGAAGGUACUGACAUGAGGAUCACCCAUGUUUUAGUGUGGGCAUGUAGA [JMF's solution 60] (Eterna round: R96, puzzle: Exclusion NG 1)”, the “apparent KD of MS2 coat protein” value under setting [1] was 53.3 nM.

For the sequence “UAUAUAUAGUAAGGAUAUGUAUAUAUUUUAUUAACAGAAGGUACUGACAUGAGGAUCACCCAUGUUUUAGUGUGGGCAUGUAGA [JMF's solution 69] (Eterna round: R96, puzzle: Exclusion NG 1)”, the “apparent KD of MS2 coat protein” value under setting [1] stood at 55.2 nM.

“UAUAUAUAGUAAGGAUAUGUAUUAAUUUUAUAAACAGAAGGUACUGACAUGAGGAUCACCCAUGUUUUAGUGUGGGCAUGUAGA [JMF's solution 9] (Eterna round: R96, puzzle: Exclusion NG 1)”: the “apparent KD of MS2 coat protein” value under setting [1] came to 72.8 nM.

Turning to “UAUAUAUAGUAAGGAUAUGUAUUUAGUUUAUAAACAGAAGGUACUGACAUGAGGAUCACCCAUGUUUUAGUGUGGGCAUGUAGA [JMF's solution 14] (Eterna round: R96, puzzle: Exclusion NG 1)”, the “apparent KD of MS2 coat protein” value under setting [1] was found to be 71.2 nM.
